This passage reports Kd results from patent US20230203177A1 (Bristol-Myers Squibb, published 2023).

B1: M17 (HC-wt / LC-K45Q) (antibody, human IgG1, kappa)
heavy: not shown
light: DIQMTQSPSFLSASVGDRVTITCKASQDVSTAVAWYQQKPGKAPQLLIYSASYRYTGVPSRFSGSGSGTDFTLTISSLQPEDFATYYCQQHYSTPWTFGGGTKVEIKRTVAAPSVFIFPPSDEQLKSGTASVVCLLNNFYPREAKVQWKVDNALQSGNSQESVTEQDSKDSTYSLSSTLTLSKADYEKHKVYACEVTHQGLSSPVTKSFNRGEC
notes: IgG1-P238K; also called HC1/LC2
B2: M14 (HC-K74T / LC-wt) (antibody, human IgG1, kappa)
heavy: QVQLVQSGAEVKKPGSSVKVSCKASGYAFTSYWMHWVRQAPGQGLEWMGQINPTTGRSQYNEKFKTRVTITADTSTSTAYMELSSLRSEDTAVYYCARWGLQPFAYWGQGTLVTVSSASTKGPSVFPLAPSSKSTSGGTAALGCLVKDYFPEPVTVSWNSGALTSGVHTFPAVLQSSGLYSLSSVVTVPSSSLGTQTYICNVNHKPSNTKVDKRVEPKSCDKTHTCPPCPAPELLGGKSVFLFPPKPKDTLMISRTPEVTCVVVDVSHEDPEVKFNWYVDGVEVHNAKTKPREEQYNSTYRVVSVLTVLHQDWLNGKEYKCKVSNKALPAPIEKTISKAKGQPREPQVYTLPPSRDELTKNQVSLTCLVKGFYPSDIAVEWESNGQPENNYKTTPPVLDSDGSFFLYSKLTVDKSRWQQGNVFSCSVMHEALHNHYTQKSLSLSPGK
light: B1 light with Q45K
notes: IgG1-P238K; also called HC14/LC1
B3: M19 (HC-K12Q,K13Q,K23Q / LC-K45Q) (antibody, human IgG1, kappa, V domains shown)
VH: QVQLVQSGAEVQQPGSSVKVSCQASGYAFTSYWMHWVRQAPGQGLEWMGQINPTTGRSQYNEKFKTRVTITADKSTSTAYMELSSLRSEDTAVYYCARWGLQPFAYWGQGTLVTVSS
VL: DIQMTQSPSFLSASVGDRVTITCKASQDVSTAVAWYQQKPGKAPQLLIYSASYRYTGVPSRFSGSGSGTDFTLTISSLQPEDFATYYCQQHYSTPWTFGGGTKVEIKR
notes: IgG1-P238K; also called HC3/LC2
B4: M7 (HC-K23E / LC-wt) (antibody, human IgG1, kappa)
heavy: not shown
light: B1 light with Q45K
notes: IgG1-P238K; also called HC7/LC1
B5: M26 (HC-R67E / LC-K45Q) (antibody, human IgG1, kappa, V domains shown)
VH: B3 VH with Q12K, Q13K, Q23K, R67E
VL: B3 VL
notes: IgG1-P238K; also called HC10/LC2
B6: M15 (HC-R67Q / LC-wt) (antibody, human IgG1, kappa)
heavy: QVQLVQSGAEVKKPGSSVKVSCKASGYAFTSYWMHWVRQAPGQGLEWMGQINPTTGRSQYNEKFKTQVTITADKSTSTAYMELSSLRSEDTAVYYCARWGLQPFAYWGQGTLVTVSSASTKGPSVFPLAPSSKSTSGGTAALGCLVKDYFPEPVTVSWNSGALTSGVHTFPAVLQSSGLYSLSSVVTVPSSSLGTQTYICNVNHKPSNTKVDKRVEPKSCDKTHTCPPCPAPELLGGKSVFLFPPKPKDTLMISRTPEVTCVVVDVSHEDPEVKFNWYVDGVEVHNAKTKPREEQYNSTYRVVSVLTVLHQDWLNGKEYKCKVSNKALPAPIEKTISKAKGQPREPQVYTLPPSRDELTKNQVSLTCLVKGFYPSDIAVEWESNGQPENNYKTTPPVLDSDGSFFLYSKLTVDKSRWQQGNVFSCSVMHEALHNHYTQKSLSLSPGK
light: B1 light with Q45K
notes: IgG1-P238K; also called HC15/LC1
B7: M30 (HC-K74T / LC-K45Q) (antibody, human IgG1, kappa, V domains shown)
VH: B3 VH with Q12K, Q13K, Q23K, K74T
VL: B3 VL
notes: IgG1-P238K; also called HC14/LC2
B8: M41 (HC-K63Q,R67E / LC-K45E) (antibody, human IgG1, kappa, V domains shown)
VH: B3 VH with Q12K, Q13K, Q23K, K63Q, R67E
VL: B3 VL with Q45E
notes: IgG1-P238K; also called HC9/LC3
B9: M23 (HC-K23E / LC-K45Q) (antibody, human IgG1, kappa)
heavy: not shown
light: B1 light
notes: IgG1-P238K; also called HC7/LC2
B10: M42 (HC-R67E / LC-K45E) (antibody, human IgG1, kappa, V domains shown)
VH: B3 VH with Q12K, Q13K, Q23K, R67E
VL: B3 VL with Q45E
notes: IgG1-P238K; also called HC10/LC3
B11: M32 (HC-K63Q / LC-K45Q) (antibody, human IgG1, kappa, V domains shown)
VH: B3 VH with Q12K, Q13K, Q23K, K63Q
VL: B3 VL
notes: IgG1-P238K; also called HC16/LC2
B12: M40 (HC-R38Q,K63Q,R67Q / LC-K45E) (antibody, human IgG1, kappa, V domains shown)
VH: B3 VH with Q12K, Q13K, Q23K, R38Q, K63Q, R67Q
VL: B3 VL with Q45E
notes: IgG1-P238K; also called HC8/LC3
B13: M9 (HC-K63Q,R67E / LC-wt) (antibody, human IgG1, kappa)
heavy: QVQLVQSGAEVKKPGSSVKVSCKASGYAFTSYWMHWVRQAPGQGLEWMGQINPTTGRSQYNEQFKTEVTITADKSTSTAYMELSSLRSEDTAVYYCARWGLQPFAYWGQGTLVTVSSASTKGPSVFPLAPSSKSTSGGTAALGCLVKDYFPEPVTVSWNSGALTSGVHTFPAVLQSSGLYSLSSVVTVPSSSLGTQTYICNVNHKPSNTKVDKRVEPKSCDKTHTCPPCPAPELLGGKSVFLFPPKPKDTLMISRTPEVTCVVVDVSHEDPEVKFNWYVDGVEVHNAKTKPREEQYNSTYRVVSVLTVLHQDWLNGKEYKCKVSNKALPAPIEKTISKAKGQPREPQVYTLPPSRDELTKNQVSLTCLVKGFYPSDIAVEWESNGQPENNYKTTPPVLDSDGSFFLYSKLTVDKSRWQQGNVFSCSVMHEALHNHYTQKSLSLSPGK
light: B1 light with Q45K
notes: IgG1-P238K; also called HC9/LC1
B14: M29 (HC-E46K,E62K / LC-K45Q) (antibody, human IgG1, kappa, V domains shown)
VH: B3 VH with Q12K, Q13K, Q23K, E46K, E62K
VL: B3 VL
notes: IgG1-P238K; also called HC13/LC2
B15: M24 (HC-R38Q,K63Q,R67Q / LC-K45Q) (antibody, human IgG1, kappa, V domains shown)
VH: B3 VH with Q12K, Q13K, Q23K, R38Q, K63Q, R67Q
VL: B3 VL
notes: IgG1-P238K; also called HC8/LC2
B16: M5 (HC-K12E,K13Q,K23E / LC-wt) (antibody, human IgG1, kappa)
heavy: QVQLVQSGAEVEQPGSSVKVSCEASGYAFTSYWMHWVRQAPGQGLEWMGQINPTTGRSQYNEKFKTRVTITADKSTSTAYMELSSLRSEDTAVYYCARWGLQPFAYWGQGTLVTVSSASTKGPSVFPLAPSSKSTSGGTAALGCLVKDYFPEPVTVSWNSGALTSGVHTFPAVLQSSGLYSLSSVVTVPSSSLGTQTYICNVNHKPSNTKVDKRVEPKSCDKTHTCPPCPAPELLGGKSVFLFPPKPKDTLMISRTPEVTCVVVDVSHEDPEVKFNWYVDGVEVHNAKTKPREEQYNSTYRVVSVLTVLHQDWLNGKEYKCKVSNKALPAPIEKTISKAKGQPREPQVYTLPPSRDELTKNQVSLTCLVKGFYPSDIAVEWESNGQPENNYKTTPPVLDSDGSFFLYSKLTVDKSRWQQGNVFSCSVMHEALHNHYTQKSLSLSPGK
light: B1 light with Q45K
notes: IgG1-P238K; also called HC5/LC1
B17: M12 (HC-R57E,K74Q / LC-wt) (antibody, human IgG1, kappa)
heavy: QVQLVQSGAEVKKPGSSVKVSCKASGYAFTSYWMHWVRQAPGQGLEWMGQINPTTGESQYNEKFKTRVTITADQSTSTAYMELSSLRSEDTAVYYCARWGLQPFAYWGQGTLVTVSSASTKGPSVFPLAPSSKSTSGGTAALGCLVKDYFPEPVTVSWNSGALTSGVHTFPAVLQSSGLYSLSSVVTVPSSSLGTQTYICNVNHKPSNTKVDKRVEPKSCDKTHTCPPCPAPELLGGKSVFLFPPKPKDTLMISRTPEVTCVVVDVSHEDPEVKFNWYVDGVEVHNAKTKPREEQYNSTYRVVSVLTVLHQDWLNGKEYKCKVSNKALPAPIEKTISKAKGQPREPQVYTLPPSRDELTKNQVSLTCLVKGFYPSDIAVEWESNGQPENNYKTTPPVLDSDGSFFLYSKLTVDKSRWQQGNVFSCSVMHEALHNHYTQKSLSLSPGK
light: B1 light with Q45K
notes: IgG1-P238K; also called HC12/LC1
B18: M35 (HC-K12Q,K13Q,K23Q / LC-K45E) (antibody, human IgG1, kappa, V domains shown)
VH: B3 VH
VL: B3 VL with Q45E
notes: IgG1-P238K; also called HC3/LC3
B19: M22 (HC-K12V,K19S,K23A / LC-K45Q) (antibody, human IgG1, kappa, V domains shown)
VH: B3 VH with Q12V, Q13K, K19S, Q23A
VL: B3 VL
notes: IgG1-P238K; also called HC6/LC2
B20: M27 (HC-R57E / LC-K45Q) (antibody, human IgG1, kappa, V domains shown)
VH: B3 VH with Q12K, Q13K, Q23K, R57E
VL: B3 VL
notes: IgG1-P238K; also called HC11/LC2
B21: M11 (HC-R57E / LC-wt) (antibody, human IgG1, kappa)
heavy: not shown
light: B1 light with Q45K
notes: IgG1-P238K; also called HC11/LC1
B22: M39 (HC-K23E / LC-K45E) (antibody, human IgG1, kappa)
heavy: not shown
light: B1 light with Q45E
notes: IgG1-P238K; also called HC7/LC3
B23: M28 (HC-R57E,K74Q / LC-K45Q) (antibody, human IgG1, kappa, V domains shown)
VH: B3 VH with Q12K, Q13K, Q23K, R57E, K74Q
VL: B3 VL
notes: IgG1-P238K; also called HC12/LC2
B24: M31 (HC-R67Q / LC-K45Q) (antibody, human IgG1, kappa, V domains shown)
VH: B3 VH with Q12K, Q13K, Q23K, R67Q
VL: B3 VL
notes: IgG1-P238K; also called HC15/LC2
B25: M6 (HC-K12V,K19S,K23A / LC-wt) (antibody, human IgG1, kappa)
heavy: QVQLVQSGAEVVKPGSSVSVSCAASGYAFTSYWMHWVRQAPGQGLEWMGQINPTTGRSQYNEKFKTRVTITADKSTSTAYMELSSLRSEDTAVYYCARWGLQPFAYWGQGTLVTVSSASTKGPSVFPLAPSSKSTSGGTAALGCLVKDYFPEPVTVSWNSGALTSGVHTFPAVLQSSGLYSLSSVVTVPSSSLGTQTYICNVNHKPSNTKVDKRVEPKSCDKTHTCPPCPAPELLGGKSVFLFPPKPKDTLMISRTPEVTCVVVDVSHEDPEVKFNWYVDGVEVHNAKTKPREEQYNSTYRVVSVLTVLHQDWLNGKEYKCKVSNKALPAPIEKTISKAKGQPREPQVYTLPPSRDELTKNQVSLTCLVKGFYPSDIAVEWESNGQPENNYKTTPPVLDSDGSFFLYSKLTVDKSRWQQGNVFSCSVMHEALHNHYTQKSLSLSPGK
light: B1 light with Q45K
notes: IgG1-P238K; also called HC6/LC1
B26: M8 (HC-R38Q,K63Q,R67Q / LC-wt) (antibody, human IgG1, kappa)
heavy: not shown
light: B1 light with Q45K
notes: IgG1-P238K; also called HC8/LC1
B27: M18 (HC-K12Q,K13Q / LC-K45Q) (antibody, human IgG1, kappa)
heavy: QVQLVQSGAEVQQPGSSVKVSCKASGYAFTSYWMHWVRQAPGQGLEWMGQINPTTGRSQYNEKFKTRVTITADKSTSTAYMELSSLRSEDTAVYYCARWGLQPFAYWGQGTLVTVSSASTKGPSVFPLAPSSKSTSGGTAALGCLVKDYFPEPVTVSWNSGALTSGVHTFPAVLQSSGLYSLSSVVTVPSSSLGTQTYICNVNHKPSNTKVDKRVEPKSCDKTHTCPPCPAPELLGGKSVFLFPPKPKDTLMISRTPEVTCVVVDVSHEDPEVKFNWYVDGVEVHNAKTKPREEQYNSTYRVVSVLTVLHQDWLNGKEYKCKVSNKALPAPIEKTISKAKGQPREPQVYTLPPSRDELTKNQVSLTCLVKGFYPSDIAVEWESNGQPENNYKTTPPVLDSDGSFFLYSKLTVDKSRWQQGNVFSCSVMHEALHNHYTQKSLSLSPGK
light: B1 light
notes: IgG1-P238K; also called HC2/LC2
B28: M34 (HC-K12Q,K13Q / LC-K45E) (antibody, human IgG1, kappa)
heavy: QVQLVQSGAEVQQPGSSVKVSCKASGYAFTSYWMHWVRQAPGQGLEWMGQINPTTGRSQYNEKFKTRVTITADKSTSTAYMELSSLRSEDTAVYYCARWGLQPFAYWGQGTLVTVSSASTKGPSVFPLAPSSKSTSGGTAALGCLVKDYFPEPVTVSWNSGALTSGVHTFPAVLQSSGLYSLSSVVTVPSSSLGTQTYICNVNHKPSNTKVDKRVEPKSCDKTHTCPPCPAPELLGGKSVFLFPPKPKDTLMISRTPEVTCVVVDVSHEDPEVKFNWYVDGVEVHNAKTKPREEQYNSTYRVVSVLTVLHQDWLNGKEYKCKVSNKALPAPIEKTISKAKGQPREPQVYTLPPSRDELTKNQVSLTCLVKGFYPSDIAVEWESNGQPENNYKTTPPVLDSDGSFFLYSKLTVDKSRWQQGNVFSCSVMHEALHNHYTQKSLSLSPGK
light: B1 light with Q45E
notes: IgG1-P238K; also called HC2/LC3
B29: M16 (HC-K63Q / LC-wt) (antibody, human IgG1, kappa)
heavy: not shown
light: B1 light with Q45K
notes: IgG1-P238K; also called HC16/LC1
B30: M2 (HC-K12Q,K13Q / LC-wt) (antibody, human IgG1, kappa)
heavy: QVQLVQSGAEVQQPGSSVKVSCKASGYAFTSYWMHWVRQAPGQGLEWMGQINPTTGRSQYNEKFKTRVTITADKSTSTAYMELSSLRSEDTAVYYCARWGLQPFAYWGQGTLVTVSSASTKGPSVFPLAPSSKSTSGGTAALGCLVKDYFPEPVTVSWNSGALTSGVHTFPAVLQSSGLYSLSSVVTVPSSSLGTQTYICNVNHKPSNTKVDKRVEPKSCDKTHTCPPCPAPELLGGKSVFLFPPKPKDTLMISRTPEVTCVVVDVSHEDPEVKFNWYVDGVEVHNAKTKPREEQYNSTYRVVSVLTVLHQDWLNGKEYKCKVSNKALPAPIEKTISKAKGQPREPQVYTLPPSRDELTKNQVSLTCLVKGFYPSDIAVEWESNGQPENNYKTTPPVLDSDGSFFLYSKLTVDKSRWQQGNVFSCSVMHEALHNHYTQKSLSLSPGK
light: B1 light with Q45K
notes: IgG1-P238K; also called HC2/LC1
B31: M21 (HC-K12E,K13Q,K23E / LC-K45Q) (antibody, human IgG1, kappa)
heavy: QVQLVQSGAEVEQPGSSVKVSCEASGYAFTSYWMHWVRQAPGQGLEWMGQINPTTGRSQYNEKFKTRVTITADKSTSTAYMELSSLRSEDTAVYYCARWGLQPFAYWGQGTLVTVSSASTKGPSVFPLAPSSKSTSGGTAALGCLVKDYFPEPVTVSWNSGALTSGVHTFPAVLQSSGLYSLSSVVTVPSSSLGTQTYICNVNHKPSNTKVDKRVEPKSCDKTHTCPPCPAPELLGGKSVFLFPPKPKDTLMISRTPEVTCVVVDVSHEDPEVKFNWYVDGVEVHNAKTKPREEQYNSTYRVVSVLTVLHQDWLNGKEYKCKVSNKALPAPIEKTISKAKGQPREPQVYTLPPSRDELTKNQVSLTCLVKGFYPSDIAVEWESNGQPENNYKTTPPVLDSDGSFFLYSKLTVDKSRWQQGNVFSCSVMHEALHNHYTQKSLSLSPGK
light: B1 light
notes: IgG1-P238K; also called HC5/LC2
B32: M3 (HC-K12Q,K13Q,K23Q / LC-wt) (antibody, human IgG1, kappa)
heavy: not shown
light: B1 light with Q45K
notes: IgG1-P238K; also called HC3/LC1
B33: M25 (HC-K63Q,R67E / LC-K45Q) (antibody, human IgG1, kappa, V domains shown)
VH: B3 VH with Q12K, Q13K, Q23K, K63Q, R67E
VL: B3 VL
notes: IgG1-P238K; also called HC9/LC2
B34: M20 (HC-K12E / LC-K45Q) (antibody, human IgG1, kappa)
heavy: not shown
light: B1 light
notes: IgG1-P238K; also called HC4/LC2

Residue numbers refer to the chain shown, from its start. In names and notes the source's numbering stands.

The target in this assay is T1, soluble human CD40 extracellular domain (human, UniProt P25942 21-193).
T1 construct: Produced in house; also called hCD40; soluble hCD40 extracellular domain
T1 sequence (P25942 21-193 limits assumed): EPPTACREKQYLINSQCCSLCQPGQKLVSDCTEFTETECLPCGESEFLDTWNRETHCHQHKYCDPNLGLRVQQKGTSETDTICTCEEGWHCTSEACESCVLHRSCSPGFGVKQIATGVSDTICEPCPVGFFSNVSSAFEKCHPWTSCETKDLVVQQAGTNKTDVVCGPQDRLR
In words: SPR, Ab captured from supernatant on protein A, hCD40 ECD analyte. The protocol: The titer data (Table 21) were used to normalize the antibody concentration in each supernatant to 3 μg/ml, and these antibodies were captured out of the supernatants on a protein A CMS Series S sensor chip (GE Healthcare), and tested for binding to two concentrations (5 nM and 50 nM) of soluble hCD40 extracellular domain.
CD40 binding SPR of antibody supernatants: Surface plasmon resonance (SPR) studies were conducted on a BIAcore™ T200 instrument (GE Healthcare, Chicago Ill.). A Series S Protein A sensor chip (GE Healthcare, Chicago Ill.) was equilibrated with SPR running buffer of 10 mM NaPO₄, 130 mM NaCl, 0.05% tween 20, (PBS-T) pH 7.2 at 25° C. The 96 antibody supernatants were normalized to a concentration of 3 μg/ml by diluting with PBS-T using a PerkinElmer JANUS® G3 system (PerkinElmer, Akron, Ohio). After priming the system, the 3 μg/ml antibody samples were captured on the protein A surface for 30 s at 10 μl/min Binding of 50 nM and 500 nM human CD40 extracellular domain (produced in house) was evaluated using association time of 180 s at 30 μl/min, followed by a dissociation time of 180 s at 30 μl/min Regeneration between cycles was accomplished using two 15 s injections of 10 mM glycine pH 1.5. […] Data were analyzed using BIAcore™ T200 evaluation software by fitting to a 1:1 Langmuir model.
A general note: In SPR one partner is held on a chip, and binding of the other changes the refractive index at the surface.
In general, Kd refers to a measure of binding affinity in units of concentration. Consider B1, for which the Kd came out at 4.1 nM. For the molecule B2, the equilibrium dissociation constant (Kd) came to 4 nM. Under B3 stands 3.8 nM; under B4, 4.5 nM.

With B5, the Kd was 3 nM. With B6, the Kd was 3.4 nM. Under B7 stands 4 nM; under B8, 3.3 nM. Under B9 stands 4.1 nM; under B10, 3 nM. Under B11 stands 3.9 nM. B12 gave a dissociation constant Kd of 3.1 nM. Under B13 stands 3.2 nM. With B14, the Kd was determined as 8.8 nM.

On to B15, for which the affinity, expressed as Kd, was 2.9 nM. The result for B16 reads 3.8 nM; that for B17, 14 nM. B18: the Kd stood at 3.7 nM.

With B19, binding was put at a Kd of 3.5 nM. B20 came in with a Kd of 10.4 nM.

In turn, B21 came in with a Kd of 10.2 nM.

For B22, binding was put at a Kd of 4.6 nM. The result for B23 reads 15.7 nM. Regarding B24, the Kd is 3.1 nM.

On to B25, for which the dissociation constant (Kd) was determined as 3.8 nM. As for B26, the Kd stood at 3.4 nM. Under B27 stands 3.4 nM.

B28 displayed a Kd of 3.3 nM.

In turn, B29 returned a Kd of 4.1 nM. The result for B30 reads 3.7 nM; that for B31, 3.7 nM; that for B32, 3.7 nM. Under B33 stands 3.1 nM; under B34, 3.3 nM.
